Laboratory results published in publication PMC9299608, “A Multi‐enzyme Cascade for the Biosynthesis of AICA Ribonucleoside Di‐ and Triphosphate” (Chembiochem, 2021).
Each block holds one molecule with its values, some of them ahead of it.

Columns and labels:
MrPPK = target: T1, MrPPK (Meiothermus ruber, UniProt M9XB82); experiment: HPLC product quantification, Michaelis-Menten fit limited to data without substrate inhibition; format: biochemical; details: sodium polyphosphate as phosphate donor (standard assay 5 mM), MgCl2 20 mM, tris pH 8.0, 40 °C; not a true KM; reduced activity above 14 mM substrate
T1 construct: gene K649_10090; expressed in E. coli SHuffle T7 Express; IMAC and desalting
T1 sequence (M9XB82 1-267): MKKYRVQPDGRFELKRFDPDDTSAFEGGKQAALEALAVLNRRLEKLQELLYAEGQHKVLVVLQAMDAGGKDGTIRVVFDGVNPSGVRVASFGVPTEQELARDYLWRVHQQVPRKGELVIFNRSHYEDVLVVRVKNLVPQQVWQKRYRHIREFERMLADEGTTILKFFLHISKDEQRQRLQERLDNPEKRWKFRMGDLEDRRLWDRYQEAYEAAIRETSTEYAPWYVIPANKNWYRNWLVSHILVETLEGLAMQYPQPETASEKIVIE
Source text: HPLC product quantification, Michaelis-Menten fit limited to data without substrate inhibition on MrPPK

[1] = tested on: NC(=O)c1ncn([C@@H]2O[C@H](COP(=O)(O)O)[C@@H](O)[C@H]2O)c1N; experiment: purified protein; details: sodium polyphosphate as phosphate donor (standard assay 5 mM), MgCl2 20 mM, tris pH 8.0, 30 °C
[2] = substrate: NC(=O)c1[nH]cnc1N; experiment: HPLC product quantification, Michaelis-Menten fit; format: biochemical, Escherichia coli; details: co-substrate PRPP, MgCl2 20 mM, tris pH 8.0, standard assay 40 °C (kinetics under conditions optimized for each cascade), text b32 gives 6.2
Source text: HPLC product quantification, Michaelis-Menten fit on EcAPT

- Km (MrPPK): > 8.6 mM
Molecule: NC(=O)c1ncn([C@@H]2O[C@H](COP(=O)(O)O)[C@@H](O)[C@H]2O)c1N [ZMP]

Molecule: AjPPK (Acinetobacter johnsonii)
- Km [1]: 8.2 ± 1.4 mM
- Vmax [1]: 67 µmol/min/mg

B1: EcAPT (Escherichia coli K-12) (protein)
chain: MTATAQQLEYLKNSIKSIQDYPKPGILFRDVTSLLEDPKAYALSIDLLVERYKNAGITKVVGTEARGFLFGAPVALGLGVGFVPVRKPGKLPRETISETYDLEYGTDQLEIHVDAIKPGDKVLVVDDLLATGGTIEATVKLIRRLGGEVADAAFIINLFDLGGEQRLEKQGITSYSLVPFPGH
notes: expressed in E. coli BL21(DE3); IMAC and desalting
- Km [2]: 6.3 ± 2.3 mM
- Vmax [2]: 8.6 µmol/min/mg
